Where no end group is shown, it is not given here.
Tests used:
[1] = molecular target: cationic and hydrophobic probes; experiment: other fluorescence titration; probe (1 μM) with BSA titrated up to 100 mg/mL (2 mM) in a 96-well plate; ratio of excitation at 405 nm/488 nm, emission 520 nm; 10 mM NaPi, 100 mM KCl, pH 7.4; room temperature; fitted to a Hill function; KD of BSA (+92e) with GFP(EEE)4 called apparent
GFP(KLL)4 = experiment: as above
GFP(ESS)4 = experiment: as above
GFP(EEE)4 = experiment: as above
GFP(ESE)4 = experiment: as above
[2] = molecular target: T1, wtBSA(-17e), bovine serum albumin (bovine, UniProt P02769 25-607); experiment: other fluorescence titration; BSA titrated to 1 uM probe (His-tag removed) in a 96-well plate; excitation ratio 405 nm/488 nm at 520 nm emission; 10 mM NaPi, 100 mM KCl, pH 7.4, room temperature; ratio against BSA concentration fitted to a Hill function (k = KD, n = Hill coefficient); errors are errors in the fits; conditions: both partners purified
T1 construct: bovine serum albumin, wild type; also called wtBSA (−18e); BSA(-18e); source: bought: Sigma-Aldrich; further purified by repeated concentration on an Amicon 10 kD cutoff filter
T1 sequence (P02769 25-607): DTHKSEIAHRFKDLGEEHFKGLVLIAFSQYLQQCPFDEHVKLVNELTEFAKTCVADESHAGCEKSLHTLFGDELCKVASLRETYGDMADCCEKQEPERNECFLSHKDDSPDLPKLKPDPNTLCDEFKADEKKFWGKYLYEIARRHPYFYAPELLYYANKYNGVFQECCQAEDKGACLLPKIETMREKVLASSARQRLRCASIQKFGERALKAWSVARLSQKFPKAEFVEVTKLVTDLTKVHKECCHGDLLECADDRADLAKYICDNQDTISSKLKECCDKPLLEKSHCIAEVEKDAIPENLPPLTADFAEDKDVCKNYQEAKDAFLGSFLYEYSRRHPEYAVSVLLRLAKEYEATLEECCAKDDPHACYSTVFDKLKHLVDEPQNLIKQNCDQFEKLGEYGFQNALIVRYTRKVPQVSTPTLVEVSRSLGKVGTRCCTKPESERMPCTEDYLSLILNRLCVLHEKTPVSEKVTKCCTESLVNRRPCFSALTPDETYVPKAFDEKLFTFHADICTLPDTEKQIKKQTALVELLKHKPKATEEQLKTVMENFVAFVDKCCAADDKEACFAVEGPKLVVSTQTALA

Chain of bovine serum albumin (BSA), wild type (P02769 25-607): as above

Molecule “bovine serum albumin (BSA), wild type (from UniProt P02769 25-607) (natural protein)” has a Kd [1] of 100 to 200 µM, a Kd (GFP(KLL)4) of 100 to 200 µM and a Kd (GFP(ESS)4) greater than 1000 µM. It also gave a Kd (GFP(EEE)4) greater than 1000 µM and a Kd (GFP(ESE)4) greater than 1000 µM.

KLLKLLKLLKLL (other, also: fused to cpGFP reporter, not in chain) [GFP(KLL)4] showed a Kd [2] of 110 µM.

With KKKKKKKKKKKK (other, also: fused to cpGFP reporter, not in chain) [GFP(KKK)4] the Kd [2] was 170 µM.

Work on KLKKLKKLKKLK (other, also: fused to cpGFP reporter, not in chain) [GFP(KLK)4] yielded a Kd [2] of 220 µM.
